Target: Myeloperoxidase (MPO), native, dimeric (human) (UniProt P05164)
Experiment: SPR

Kd: 436 nM
koff: 0.503 s⁻¹
kon: 11500 M⁻¹ s⁻¹
B1: Ceruloplasmin (CP), intact (non-proteolyzed) (natural protein)
chain: KEKHYYIGIIETTWDYASDHGEKKLISVDTEHSNIYLQNGPDRIGRLYKKALYLQYTDETFRTTIEKPVWLGFLGPIIKAETGDKVYVHLKNLASRPYTFHSHGITYYKEHEGAIYPDNTTDFQRADDKVYPGEQYTYMLLATEEQSPGEGDGNCVTRIYHSHIDAPKDIASGLIGPLIICKKDSLDKEKEKHIDREFVVMFSVVDENFSWYLEDNIKTYCSEPEKVDKDNEDFQESNRMYSVNGYTFGSLPGLSMCAEDRVKWYLFGMGNEVDVHAAFFHGQALTNKNYRIDTINLFPATLFDAYMVAQNPGEWMLSCQNLNHLKAGLQAFFQVQECNKSSSKDNIRGKHVRHYYIAAEEIIWNYAPSGIDIFTKENLTAPGSDSAVFFEQGTTRIGGSYKKLVYREYTDASFTNRKERGPEEEHLGILGPVIWAEVGDTIRVTFHNKGAYPLSIEPIGVRFNKNNEGTYYSPNYNPQSRSVPPSASHVAPTETFTYEWTVPKEVGPTNADPVCLAKMYYSAVEPTKDIFTGLIGPMKICKKGSLHANGRQKDVDKEFYLFPTVFDENESLLLEDNIRMFTTAPDQVDKEDEDFQESNKMHSMNGFMYGNQPGLTMCKGDSVVWYLFSAGNEADVHGIYFSGNTYLWRGERRDTANLFPQTSLTLHMWPDTEGTFNVECLTTDHYTGGMKQKYTVNQCRRQSEDSTFYLGERTYYIAAVEVEWDYSPQREWEKELHHLQEQNVSNAFLDKGEFYIGSKYKKVVYRQYTDSTFRVPVERKAEEEHLGILGPQLHADVGDKVKIIFKNMATRPYSIHAHGVQTESSTVTPTLPGETLTYVWKIPERSGAGTEDSACIPWAYYSTVDQVKDLYSGLIGPLIVCRRPYLKVFNPRRKLEFALLFLVFDENESWYLDDNIKTYSDHPEKVNKDDEEFIESNKMHAINGRMFGNLQGLTMHVGDEVNWYLMGMGNEIDLHTVHFHGHSFQYKHRGVYSSDVFDIFPGTYQTLEMFPRTPGIWLLHCHVTDHIHAGMETTYTVLQNEDTKSG

Reference: article PMC9375587
